The values that follow come from patent US20250339531A1 (FRED HUTCHINSON CANCER CENTER, published 2025).

In experiment [1] the target is T1, 3×MYC-STAT1-S727E phosphorylated at Y701 with JAK1 kinase (UniProt P42224 1-750, phosphorylated at Y701 with JAK1 kinase).
T1 construct: In vitro translated in rabbit reticulocyte lysate; not shown: 3×MYC tag
T1 sequence (looked up): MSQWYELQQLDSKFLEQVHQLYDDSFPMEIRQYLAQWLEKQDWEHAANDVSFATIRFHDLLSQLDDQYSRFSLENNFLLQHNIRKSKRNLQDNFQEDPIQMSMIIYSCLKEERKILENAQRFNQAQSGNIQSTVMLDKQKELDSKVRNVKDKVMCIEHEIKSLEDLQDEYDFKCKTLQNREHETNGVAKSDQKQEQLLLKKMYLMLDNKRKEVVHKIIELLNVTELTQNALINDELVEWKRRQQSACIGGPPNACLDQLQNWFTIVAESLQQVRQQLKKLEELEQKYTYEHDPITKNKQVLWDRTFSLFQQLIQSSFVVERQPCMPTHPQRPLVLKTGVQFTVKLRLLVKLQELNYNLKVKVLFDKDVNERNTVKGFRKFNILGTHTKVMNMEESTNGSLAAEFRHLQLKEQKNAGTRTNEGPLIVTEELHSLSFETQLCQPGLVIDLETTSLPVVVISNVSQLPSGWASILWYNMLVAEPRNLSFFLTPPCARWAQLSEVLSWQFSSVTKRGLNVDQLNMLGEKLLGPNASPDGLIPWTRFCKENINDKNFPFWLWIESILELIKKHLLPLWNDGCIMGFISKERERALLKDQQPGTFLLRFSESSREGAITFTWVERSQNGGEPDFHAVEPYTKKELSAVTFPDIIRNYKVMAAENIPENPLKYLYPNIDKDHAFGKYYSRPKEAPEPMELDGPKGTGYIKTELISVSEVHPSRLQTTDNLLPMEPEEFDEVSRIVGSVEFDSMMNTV
Description: anti-FLAG IP of in vitro translated proteins, with JAK1 treatment, western.

Experiment [2] concerns the target T2, 3×MYC-STAT1-S727E (UniProt P42224 1-750).
T2 construct: In vitro translated in rabbit reticulocyte lysate; also called phospho-mimic STAT1-S727E; not shown: 3×MYC tag
T2 sequence (looked up): T1 sequence (looked up)
Description: anti-FLAG IP of in vitro translated proteins, without JAK1 treatment, western.

Experiment [3] deals with T3, Cyclin-dependent kinase 4 (Homo sapiens, UniProt P11802 2-303).
T3 construct: also called CDK4
T3 sequence (P11802 2-303 limits assumed): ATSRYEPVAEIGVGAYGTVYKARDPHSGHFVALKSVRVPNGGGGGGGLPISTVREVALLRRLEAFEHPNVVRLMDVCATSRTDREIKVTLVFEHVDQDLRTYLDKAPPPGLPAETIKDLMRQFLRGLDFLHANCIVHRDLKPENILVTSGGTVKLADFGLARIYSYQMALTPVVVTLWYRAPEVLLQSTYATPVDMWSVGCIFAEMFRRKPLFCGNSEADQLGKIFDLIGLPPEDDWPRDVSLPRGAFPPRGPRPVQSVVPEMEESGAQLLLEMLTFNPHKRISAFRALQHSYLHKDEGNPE
Description: anti-FLAG co-IP LC-MS, exp 3, +IFNg +Dox.

In experiment [4] the target is ATP-dependent RNA helicase DDX3X (Homo sapiens, UniProt O00571 2-662). Put plainly: anti-FLAG co-IP LC-MS, exp 3, +IFNg +Dox.
For experiment [5], the target named is T4, Signal transducer and activator of transcription 1-alpha/beta (Homo sapiens, UniProt P42224 2-750).
T4 construct: also called STAT1
T4 sequence (looked up): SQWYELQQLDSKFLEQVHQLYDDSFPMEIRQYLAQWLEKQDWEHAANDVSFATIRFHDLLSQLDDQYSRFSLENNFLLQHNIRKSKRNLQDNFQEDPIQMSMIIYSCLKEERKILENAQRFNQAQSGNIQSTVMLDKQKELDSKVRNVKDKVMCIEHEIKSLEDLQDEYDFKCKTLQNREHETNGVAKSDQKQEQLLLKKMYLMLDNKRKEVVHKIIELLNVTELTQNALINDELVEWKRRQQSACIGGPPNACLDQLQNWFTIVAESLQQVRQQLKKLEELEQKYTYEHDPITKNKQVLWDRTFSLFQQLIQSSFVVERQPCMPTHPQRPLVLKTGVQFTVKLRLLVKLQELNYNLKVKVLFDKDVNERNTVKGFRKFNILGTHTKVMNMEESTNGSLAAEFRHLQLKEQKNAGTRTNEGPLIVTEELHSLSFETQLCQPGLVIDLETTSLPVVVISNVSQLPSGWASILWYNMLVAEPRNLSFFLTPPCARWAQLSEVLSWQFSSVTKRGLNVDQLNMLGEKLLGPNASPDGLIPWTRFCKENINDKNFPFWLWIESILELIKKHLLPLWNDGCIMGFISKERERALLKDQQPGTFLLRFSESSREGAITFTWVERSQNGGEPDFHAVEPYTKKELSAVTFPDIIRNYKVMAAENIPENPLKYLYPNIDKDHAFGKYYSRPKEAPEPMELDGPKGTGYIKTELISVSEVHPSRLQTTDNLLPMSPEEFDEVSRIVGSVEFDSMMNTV
Description: anti-FLAG co-IP LC-MS, exp 3, +IFNg +Dox.

In experiment [6] the target is T5, Nuclease-sensitive element-binding protein 1 (Fragment) (Homo sapiens, UniProt P67809 2-324).
T5 construct: also called YBX1
T5 sequence (P67809 2-324 limits assumed): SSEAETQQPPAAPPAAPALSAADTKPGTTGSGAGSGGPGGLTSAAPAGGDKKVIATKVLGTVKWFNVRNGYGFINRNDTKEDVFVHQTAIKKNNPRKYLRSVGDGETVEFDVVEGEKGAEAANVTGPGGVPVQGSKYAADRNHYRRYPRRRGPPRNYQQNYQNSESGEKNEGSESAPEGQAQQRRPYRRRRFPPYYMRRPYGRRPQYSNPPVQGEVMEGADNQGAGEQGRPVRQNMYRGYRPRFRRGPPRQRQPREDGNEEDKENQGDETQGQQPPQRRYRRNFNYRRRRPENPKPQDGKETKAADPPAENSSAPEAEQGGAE
Put plainly: anti-FLAG co-IP LC-MS, exp 3, +IFNg +Dox.

The target in experiment [7] is T6, cDNA FLJ56329, highly similar to Myosin light polypeptide 6 (Homo sapiens).
T6 construct: also called MYL6
Description: anti-FLAG co-IP LC-MS, exp 3, +IFNg +Dox.

The target in experiment [8] is T7, Immunoglobulin kappa variable 2-40 (Homo sapiens).
T7 construct: also called IGKV2-40
T7 sequence (A0A087WW87 20-121): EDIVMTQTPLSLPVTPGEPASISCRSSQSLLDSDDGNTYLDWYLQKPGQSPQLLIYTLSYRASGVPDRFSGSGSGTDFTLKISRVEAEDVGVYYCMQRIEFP
Put plainly: anti-FLAG co-IP LC-MS, exp 3, +IFNg +Dox.

The target in experiment [9] is T8, Proteasome subunit alpha type (Homo sapiens).
T8 construct: also called PSMA6
Description: anti-FLAG co-IP LC-MS, exp 3, +IFNg +Dox.

In experiment [10] the target is T9, DNA-dependent protein kinase catalytic subunit (Homo sapiens, UniProt P78527 1-4128).
T9 construct: also called PRKDC
T9 sequence (P78527 whole entry): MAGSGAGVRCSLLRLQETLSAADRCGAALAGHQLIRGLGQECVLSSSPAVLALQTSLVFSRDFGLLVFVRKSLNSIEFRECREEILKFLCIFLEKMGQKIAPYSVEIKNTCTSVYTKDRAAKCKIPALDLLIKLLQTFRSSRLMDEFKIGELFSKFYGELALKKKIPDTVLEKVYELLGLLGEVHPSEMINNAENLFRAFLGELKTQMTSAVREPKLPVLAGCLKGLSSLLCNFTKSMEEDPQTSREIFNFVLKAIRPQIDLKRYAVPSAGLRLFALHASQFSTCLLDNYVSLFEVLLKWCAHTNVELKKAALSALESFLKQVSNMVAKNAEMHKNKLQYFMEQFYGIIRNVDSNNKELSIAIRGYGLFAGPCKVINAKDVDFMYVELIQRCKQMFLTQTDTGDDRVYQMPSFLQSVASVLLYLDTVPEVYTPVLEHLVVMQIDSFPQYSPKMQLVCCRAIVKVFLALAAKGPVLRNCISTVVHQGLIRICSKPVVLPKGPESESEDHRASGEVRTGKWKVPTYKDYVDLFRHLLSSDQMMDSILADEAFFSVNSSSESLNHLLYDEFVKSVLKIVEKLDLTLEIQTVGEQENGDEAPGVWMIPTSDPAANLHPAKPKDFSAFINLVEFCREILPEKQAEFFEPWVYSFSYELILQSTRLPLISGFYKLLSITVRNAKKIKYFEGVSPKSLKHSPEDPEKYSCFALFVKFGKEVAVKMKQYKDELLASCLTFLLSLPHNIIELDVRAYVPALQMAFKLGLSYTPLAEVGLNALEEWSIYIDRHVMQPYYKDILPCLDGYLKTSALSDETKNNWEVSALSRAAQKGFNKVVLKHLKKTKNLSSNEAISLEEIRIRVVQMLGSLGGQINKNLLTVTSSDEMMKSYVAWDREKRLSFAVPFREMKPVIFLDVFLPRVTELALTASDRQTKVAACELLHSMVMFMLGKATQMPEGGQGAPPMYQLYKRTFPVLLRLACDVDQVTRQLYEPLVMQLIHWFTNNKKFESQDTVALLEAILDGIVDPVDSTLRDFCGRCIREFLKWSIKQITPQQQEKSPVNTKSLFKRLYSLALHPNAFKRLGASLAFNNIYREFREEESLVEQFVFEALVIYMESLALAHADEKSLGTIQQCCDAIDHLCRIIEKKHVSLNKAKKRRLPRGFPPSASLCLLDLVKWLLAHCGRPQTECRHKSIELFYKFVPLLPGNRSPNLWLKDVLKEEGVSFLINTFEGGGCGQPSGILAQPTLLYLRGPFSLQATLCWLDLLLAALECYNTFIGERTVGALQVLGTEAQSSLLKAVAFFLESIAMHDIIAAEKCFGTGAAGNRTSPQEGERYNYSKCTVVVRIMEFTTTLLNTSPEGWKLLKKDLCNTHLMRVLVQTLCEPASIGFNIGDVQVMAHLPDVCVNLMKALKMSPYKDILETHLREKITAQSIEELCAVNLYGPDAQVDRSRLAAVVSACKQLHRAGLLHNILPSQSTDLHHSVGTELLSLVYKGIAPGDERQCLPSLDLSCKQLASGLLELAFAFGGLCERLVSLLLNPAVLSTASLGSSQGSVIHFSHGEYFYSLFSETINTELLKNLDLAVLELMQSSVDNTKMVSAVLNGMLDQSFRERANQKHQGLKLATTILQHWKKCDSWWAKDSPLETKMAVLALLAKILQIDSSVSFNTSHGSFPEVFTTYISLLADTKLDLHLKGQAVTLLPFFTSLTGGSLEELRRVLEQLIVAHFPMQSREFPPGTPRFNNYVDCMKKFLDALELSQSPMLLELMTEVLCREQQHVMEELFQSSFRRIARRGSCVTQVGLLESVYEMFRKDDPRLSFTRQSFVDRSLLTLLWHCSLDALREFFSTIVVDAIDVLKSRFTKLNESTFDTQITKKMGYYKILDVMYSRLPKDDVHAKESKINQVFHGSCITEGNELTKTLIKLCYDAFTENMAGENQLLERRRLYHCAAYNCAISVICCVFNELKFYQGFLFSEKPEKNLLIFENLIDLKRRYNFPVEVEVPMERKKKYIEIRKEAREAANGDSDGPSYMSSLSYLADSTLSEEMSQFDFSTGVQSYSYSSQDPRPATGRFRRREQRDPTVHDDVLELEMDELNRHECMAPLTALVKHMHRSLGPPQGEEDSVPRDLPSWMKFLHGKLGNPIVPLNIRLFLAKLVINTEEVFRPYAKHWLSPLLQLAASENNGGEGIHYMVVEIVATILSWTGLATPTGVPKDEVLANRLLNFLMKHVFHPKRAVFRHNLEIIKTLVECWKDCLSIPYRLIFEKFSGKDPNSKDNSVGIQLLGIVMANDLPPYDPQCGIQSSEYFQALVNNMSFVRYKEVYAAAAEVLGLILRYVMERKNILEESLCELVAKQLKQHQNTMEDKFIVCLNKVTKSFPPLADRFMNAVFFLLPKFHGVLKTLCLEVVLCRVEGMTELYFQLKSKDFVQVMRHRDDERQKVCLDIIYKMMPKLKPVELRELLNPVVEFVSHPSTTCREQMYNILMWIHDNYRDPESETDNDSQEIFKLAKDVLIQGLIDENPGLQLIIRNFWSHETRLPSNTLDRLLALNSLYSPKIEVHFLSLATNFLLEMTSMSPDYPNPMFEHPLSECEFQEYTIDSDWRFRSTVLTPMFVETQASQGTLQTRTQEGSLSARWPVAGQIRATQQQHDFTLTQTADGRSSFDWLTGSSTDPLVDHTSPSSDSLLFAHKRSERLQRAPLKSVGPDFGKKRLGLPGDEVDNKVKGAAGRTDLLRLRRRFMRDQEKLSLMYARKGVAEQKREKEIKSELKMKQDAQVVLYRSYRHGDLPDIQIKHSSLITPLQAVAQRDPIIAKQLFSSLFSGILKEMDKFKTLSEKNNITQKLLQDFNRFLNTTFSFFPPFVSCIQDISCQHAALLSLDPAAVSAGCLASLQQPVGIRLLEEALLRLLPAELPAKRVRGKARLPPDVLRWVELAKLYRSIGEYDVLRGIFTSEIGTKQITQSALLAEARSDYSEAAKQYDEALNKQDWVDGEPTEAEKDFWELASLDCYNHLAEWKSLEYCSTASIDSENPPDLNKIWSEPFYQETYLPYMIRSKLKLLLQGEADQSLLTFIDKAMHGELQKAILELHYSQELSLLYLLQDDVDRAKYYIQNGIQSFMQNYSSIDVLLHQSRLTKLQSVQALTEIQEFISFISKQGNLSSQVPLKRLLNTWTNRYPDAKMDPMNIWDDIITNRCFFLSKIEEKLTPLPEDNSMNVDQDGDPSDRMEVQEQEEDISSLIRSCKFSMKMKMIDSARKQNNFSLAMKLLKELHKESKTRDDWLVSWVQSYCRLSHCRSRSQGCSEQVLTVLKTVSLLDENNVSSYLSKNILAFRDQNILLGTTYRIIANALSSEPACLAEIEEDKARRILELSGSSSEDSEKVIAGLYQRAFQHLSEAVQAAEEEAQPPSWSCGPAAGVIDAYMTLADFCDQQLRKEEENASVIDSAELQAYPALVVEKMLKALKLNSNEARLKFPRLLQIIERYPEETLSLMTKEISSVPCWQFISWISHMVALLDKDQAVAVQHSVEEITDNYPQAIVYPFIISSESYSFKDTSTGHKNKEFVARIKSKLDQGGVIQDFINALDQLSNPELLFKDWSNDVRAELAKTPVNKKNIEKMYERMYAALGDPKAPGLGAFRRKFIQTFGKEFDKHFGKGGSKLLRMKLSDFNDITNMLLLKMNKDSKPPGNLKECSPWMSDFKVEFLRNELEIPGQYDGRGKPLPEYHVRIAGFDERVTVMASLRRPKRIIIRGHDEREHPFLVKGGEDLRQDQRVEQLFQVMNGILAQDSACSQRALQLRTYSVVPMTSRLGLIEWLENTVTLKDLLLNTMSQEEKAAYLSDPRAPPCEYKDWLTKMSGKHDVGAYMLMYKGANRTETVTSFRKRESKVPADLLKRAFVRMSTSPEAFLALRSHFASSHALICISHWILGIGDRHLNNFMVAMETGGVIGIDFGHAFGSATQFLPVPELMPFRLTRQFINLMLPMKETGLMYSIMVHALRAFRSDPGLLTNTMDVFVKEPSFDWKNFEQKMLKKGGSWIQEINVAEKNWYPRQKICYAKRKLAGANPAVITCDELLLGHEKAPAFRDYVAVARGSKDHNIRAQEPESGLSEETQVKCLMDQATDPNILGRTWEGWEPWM
Description: anti-FLAG co-IP LC-MS, exp 3, +IFNg +Dox.

B1: i3XFLAG-NLS-CTDaa154-424 (other)
chain: MDYKDHDGDYKDHDIDYKDDDDKPPKRMRREPKKKRKVGRAPAQAGGLCSAAPGGGHPAPSWVAFAHTGAWGTGLPAPHVPCAPGALPQGAFVSQAARAAPALQPSQAAPAEGISQPAPARGDFAYAAPAPPDGALSHPQAPRWPPHPGKSREDRDPQRDGLPGPCAVAQPGPAQAGPQGQGVLAPPTSQGSPWWGWGRGPQVAGAAWEPQAGAAPPPQPAPPDASASARQGQMQGIPAPSQALQEPAPWSALPCGLLLDELLASPEFLQQAQPLLETEAPGELEASEEAASLEAPLSEEEYRALLEEL
notes: Doxycycline-induced in MB135 cells for co-IP; also called longCTD; iDUX4-CTD
As for B1, the binding result in experiment [1] and in [2] was “no binding” in each case. The PSMs in [3] turned out to be 1 PSMs; in [4], 37 PSMs; in experiment [5], 3 PSMs; in experiment [6], 7 PSMs; in experiment [7], 4 PSMs; in [8] it was 2 PSMs. Also, the PSMs was determined as 1 PSMs in [9] and 18 PSMs in experiment [10].
